4 molecules from US20240409645A1 (DUALYX, published 2024) can be followed below.

Like-named read-outs stand apart in the source and are kept apart here.

Experiment [1] deals with T1, human IL-2 receptor (IL-2Rα/IL-2Rβ/γc) (human, UniProt P01589 22-272; P14784 27-551; P31785 23-369).
T1 sequence 1: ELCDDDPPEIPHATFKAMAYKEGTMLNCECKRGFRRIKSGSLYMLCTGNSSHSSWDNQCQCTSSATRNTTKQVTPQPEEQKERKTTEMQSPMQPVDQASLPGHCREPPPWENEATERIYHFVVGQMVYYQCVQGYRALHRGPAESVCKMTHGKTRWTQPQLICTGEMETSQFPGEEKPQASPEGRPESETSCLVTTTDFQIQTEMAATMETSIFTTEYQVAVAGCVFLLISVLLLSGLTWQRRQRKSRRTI
T1 sequence 2: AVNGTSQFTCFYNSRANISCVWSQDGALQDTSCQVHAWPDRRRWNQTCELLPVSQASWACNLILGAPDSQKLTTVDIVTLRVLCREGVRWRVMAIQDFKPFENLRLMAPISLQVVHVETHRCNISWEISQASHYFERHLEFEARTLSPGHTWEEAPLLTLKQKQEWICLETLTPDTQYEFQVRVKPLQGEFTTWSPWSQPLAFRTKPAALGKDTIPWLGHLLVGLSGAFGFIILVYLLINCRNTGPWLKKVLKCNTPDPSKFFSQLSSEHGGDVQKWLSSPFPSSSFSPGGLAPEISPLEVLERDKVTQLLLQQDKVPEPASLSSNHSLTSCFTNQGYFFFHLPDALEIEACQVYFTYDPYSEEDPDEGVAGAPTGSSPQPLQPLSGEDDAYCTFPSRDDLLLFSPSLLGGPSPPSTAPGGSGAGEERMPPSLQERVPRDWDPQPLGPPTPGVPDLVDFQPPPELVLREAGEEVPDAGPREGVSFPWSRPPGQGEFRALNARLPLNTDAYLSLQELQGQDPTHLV
T1 sequence 3: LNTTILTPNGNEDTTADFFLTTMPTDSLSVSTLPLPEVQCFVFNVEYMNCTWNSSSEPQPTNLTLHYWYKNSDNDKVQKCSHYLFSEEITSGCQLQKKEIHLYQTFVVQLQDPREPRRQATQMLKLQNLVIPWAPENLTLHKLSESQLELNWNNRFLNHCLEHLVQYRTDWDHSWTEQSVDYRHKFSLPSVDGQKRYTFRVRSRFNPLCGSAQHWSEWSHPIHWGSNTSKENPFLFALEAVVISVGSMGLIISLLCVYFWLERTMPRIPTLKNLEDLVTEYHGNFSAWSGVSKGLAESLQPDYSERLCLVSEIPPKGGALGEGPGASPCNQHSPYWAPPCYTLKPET
Description: cell-based or functional assay.

The target of experiment [2] is T1, human IL-2 receptor (IL-2Rα/IL-2Rβ/γc). Description: cell-based or functional assay. This is another data set of the same source.

B1: DC00060 (other)
chain 1: QVQLVESGGGLVQPGGSLRLSCATSGFTFRNNFMSWVRQAPGKGLEWVSTISYGGESTTYAESVKGRFTISRDNAKNTLYLQMNNLKPEDTAVYYCAKATSYDSIRSGSRGQGTQVTVSSGGGGSGGGGSGGGGSEVQLVESGGGLVQTGGSLRLSCAASGGTFSRDAMAWFRQVPGKEREFVALISWSGATTNYADSVKGRFAISRDNGKNTVYLQMNRLKPADTAIYYCAADRRPMGSRSYFEPTEYDDWGQGTQVTVSSGGGGSGGGGSGGGGSDKTHTCPPCPAPEAAGGPSVFLFPPKPKDTLMISRTPEVTCVVVDVSHEDPEVKFNWYVDGVEVHNAKTKPREEQYNSTYRVVSVLTVLHQDWLNGKEYKCKVSNKALGAPIEKTISKAKGQPREPQVYTLPPSRDELTKNQVSLTCLVKGFYPSDIAVEWESNGQPENNYKTTPPVLDSDGSFLLYSKLTVDKSRWQQGNVFSCSVMHEALHNHYTQKSLSLSPGK
chain 2: QVQLVESGGGLVQPGGSLRLSCATSGFTFRNNFMSWVRQAPGKGLEWVSTISYGGESTTYAESVKGRFTISRDNAKNTLYLQMNNLKPEDTAVYYCAKATSYDSIRSGSRGQGTQVTVSSGGGGSGGGGSGGGGSQVQLVESGGGLVQAGGSLTLSCAAPGRTFGTDVVGWFRQAPGKEREFVASISRSGDGIYYDDSVKGRFTISRNNAWNTVNLQMNSLKVEDTAVYYCAAGDGWSTYDYWGQGTQVTVSSGGGGSGGGGSGGGGSDKTHTCPPCPAPEAAGGPSVFLFPPKPKDTLMISRTPEVTCVVVDVSHEDPEVKFNWYVDGVEVHNAKTKPREEQYNSTYRVVSVLTVLHQDWLNGKEYKCKVSNKALGAPIEKTISKAKGQPREPQVYTLPPSRDELTKNQVSLTCLVKGFYPSDIAVEWESNGQPENNYKTTPPVLDSDGSFFLYSRLTVDKSRWQQGNVFSCSVMHEALHNHYTQKSLSLSPGK
For the molecule B1, in experiment [1], the “EC50 (nM) pSTAT5, NK, human PBMCs” value was found to be 0.769 nM; the “EC50 (nM) pSTAT5, Treg, human PBMCs” value was 0.00215 nM; the “Fold Max signal (% pSTAT5+) Treg/NK” value stood at 8 fold; the “Max signal (% pSTAT5+), NK” value was found to be 2.49 % pSTAT5+. Also, in experiment [1], the “Max signal (% pSTAT5+), Treg” value came out at 19.8 % pSTAT5+ and the “fold EC50 NK/Treg” value was 358 fold. In experiment [2], the “EC50 (nM) pSTAT5, NK, human PBMCs” value was found to be 0.645 nM; the “EC50 (nM) pSTAT5, Treg, human PBMCs” value was determined as 0.00334 nM; the “Fold Max signal (% pSTAT5+) Treg/NK” value amounted to 7 fold; the “Max signal (% pSTAT5+), NK” value was found to be 8 % pSTAT5+. Moreover, in experiment [2], the “Max signal (% pSTAT5+), Treg” value came out at 56 % pSTAT5+ and the “fold EC50 NK/Treg” value was determined as 193 fold.

B2: DC00068 (other)
chain 1: EVQLVESGGGLVQTGGSLRLSCAASGGTFSRDAMAWFRQVPGKEREFVALISWSGATTNYADSVKGRFAISRDNGKNTVYLQMNRLKPADTAIYYCAADRRPMGSRSYFEPTEYDDWGQGTQVTVSSGGGGSGGGGSGGGGSQVQLVESGGGLVQPGGSLRLSCATSGFTFRNNFMSWVRQAPGKGLEWVSTISYGGESTTYAESVKGRFTISRDNAKNTLYLQMNNLKPEDTAVYYCAKATSYDSIRSGSRGQGTQVTVSSDKTHTCPPCPAPEAAGGPSVFLFPPKPKDTLMISRTPEVTCVVVDVSHEDPEVKFNWYVDGVEVHNAKTKPREEQYNSTYRVVSVLTVLHQDWLNGKEYKCKVSNKALGAPIEKTISKAKGQPREPQVYTLPPSRDELTKNQVSLTCLVKGFYPSDIAVEWESNGQPENNYKTTPPVLDSDGSFLLYSKLTVDKSRWQQGNVFSCSVMHEALHNHYTQKSLSLSPGK
chain 2: QVQLVESGGGLVQAGGSLTLSCAAPGRTFGTDVVGWFRQAPGKEREFVASISRSGDGIYYDDSVKGRFTISRNNAWNTVNLQMNSLKVEDTAVYYCAAGDGWSTYDYWGQGTQVTVSSGGGGSGGGGSGGGGSQVQLVESGGGLVQPGGSLRLSCATSGFTFRNNFMSWVRQAPGKGLEWVSTISYGGESTTYAESVKGRFTISRDNAKNTLYLQMNNLKPEDTAVYYCAKATSYDSIRSGSRGQGTQVTVSSGGGGSGGGGSGGGGSEVQLVESGGGLVQTGGSLRLSCAASGGTFSRDAMAWFRQVPGKEREFVALISWSGATTNYADSVKGRFAISRDNGKNTVYLQMNRLKPADTAIYYCAADRRPMGSRSYFEPTEYDDWGQGTQVTVSSGGGGSGGGGSGGGGSDKTHTCPPCPAPEAAGGPSVFLFPPKPKDTLMISRTPEVTCVVVDVSHEDPEVKFNWYVDGVEVHNAKTKPREEQYNSTYRVVSVLTVLHQDWLNGKEYKCKVSNKALGAPIEKTISKAKGQPREPQVYTLPPSRDELTKNQVSLTCLVKGFYPSDIAVEWESNGQPENNYKTTPPVLDSDGSFFLYSRLTVDKSRWQQGNVFSCSVMHEALHNHYTQKSLSLSPGK
Regarding B2, in experiment [1], the “EC50 (nM) pSTAT5, NK, human PBMCs” value was found to be 0.00127 nM; the “EC50 (nM) pSTAT5, Treg, human PBMCs” value is 0.425 pM; the “Fold Max signal (% pSTAT5+) Treg/NK” value is 9 fold; the “Max signal (% pSTAT5+), NK” value was 3.39 % pSTAT5+. Further, in experiment [1], the “Max signal (% pSTAT5+), Treg” value worked out at 30 % pSTAT5+ and the “fold EC50 NK/Treg” value came to 3 fold. Moreover, in experiment [2], the “EC50 (nM) pSTAT5, NK, human PBMCs” value was 0.0936 nM; the “EC50 (nM) pSTAT5, Treg, human PBMCs” value came to 0.00189 nM; the “Fold Max signal (% pSTAT5+) Treg/NK” value amounted to 6 fold; the “Max signal (% pSTAT5+), NK” value was determined as 14 % pSTAT5+. Also, in experiment [2], the “Max signal (% pSTAT5+), Treg” value worked out at 83 % pSTAT5+ and the “fold EC50 NK/Treg” value was 49 fold.

B3: TsVHH-48 (other)
chain 1: QVQLVESGGGLVQPGGSLRLSCATSGFTFRNNFMSWVRQAPGKGLEWVSTISYGGESTTYAESVKGRFTISRDNAKNTLYLQMNNLKPEDTAVYYCAKATSYDSIRSGSRGQGTQVTVSSDKTHTCPPCPAPEAAGGPSVFLFPPKPKDTLMISRTPEVTCVVVDVSHEDPEVKFNWYVDGVEVHNAKTKPREEQYNSTYRVVSVLTVLHQDWLNGKEYKCKVSNKALGAPIEKTISKAKGQPREPQVYTLPPSRDELTKNQVSLTCLVKGFYPSDIAVEWESNGQPENNYKTTPPVLDSDGSFFLYSRLTVDKSRWQQGNVFSCSVMHEALHNHYTQKSLSLSPGK
chain 2: QVQLVESGGGLVQAGGSLTLSCAAPGRTFGTDVVGWFRQAPGKEREFVASISRSGDGIYYDDSVKGRFTISRNNAWNTVNLQMNSLKVEDTAVYYCAAGDGWSTYDYWGQGTQVTVSSGGGGSGGGGSGGGGSGSEVQLVESGGGLVQTGGSLRLSCAASGGTFSRDAMAWFRQVPGKEREFVALISWSGATTNYADSVKGRFAISRDNGKNTVYLQMNRLKPADTAIYYCAADRRPMGSRSYFEPTEYDDWGQGTQVTVSSGGGGSGGGGSGGGGSTVSSDKTHTCPPCPAPEAAGGPSVFLFPPKPKDTLMISRTPEVTCVVVDVSHEDPEVKFNWYVDGVEVHNAKTKPREEQYNSTYRVVSVLTVLHQDWLNGKEYKCKVSNKALGAPIEKTISKAKGQPREPQVYTLPPSRDELTKNQVSLTCLVKGFYPSDIAVEWESNGQPENNYKTTPPVLDSDGSFLLYSKLTVDKSRWQQGNVFSCSVMHEALHNHYTQKSLSLSPGK
In the case of B3, in experiment [1], the “EC50 (nM) pSTAT5, NK, human PBMCs” value amounted to 1.14 nM; the “EC50 (nM) pSTAT5, Treg, human PBMCs” value came out at 0.00195 nM; the “Fold Max signal (% pSTAT5+) Treg/NK” value worked out at 8 fold; the “Max signal (% pSTAT5+), NK” value was found to be 8.26 % pSTAT5+. Besides, in experiment [1], the “Max signal (% pSTAT5+), Treg” value amounted to 64.1 % pSTAT5+ and the “fold EC50 NK/Treg” value stood at 583 fold. Also, in experiment [2], the “EC50 (nM) pSTAT5, NK, human PBMCs” value turned out to be 2.59 nM; the “EC50 (nM) pSTAT5, Treg, human PBMCs” value is 0.0118 nM; the “Fold Max signal (% pSTAT5+) Treg/NK” value was found to be 5 fold; the “Max signal (% pSTAT5+), NK” value amounted to 20 % pSTAT5+. Besides, in experiment [2], the “Max signal (% pSTAT5+), Treg” value was 95 % pSTAT5+ and the “fold EC50 NK/Treg” value came to 220 fold.

B4: DC00093 (other)
chain 1: QLQLVESGGGLVQAGDSLRLSCAASGFNFGWHAMGWFRQAPGKEREFVATITWTGRDTYYADSVRGRFTISKDNAKDTLFLQMNSLRPDDTGVYYCAKARERATWAYSEDDCDYWGQGTQVTVSSDKTHTCPPCPAPEAAGGPSVFLFPPKPKDTLMISRTPEVTCVVVDVSHEDPEVKFNWYVDGVEVHNAKTKPREEQYNSTYRVVSVLTVLHQDWLNGKEYKCKVSNKALGAPIEKTISKAKGQPREPQVYTLPPSRDELTKNQVSLTCLVKGFYPSDIAVEWESNGQPENNYKTTPPVLDSDGSFLLYSKLTVDKSRWQQGNVFSCSVMHEALHNHYTQKSLSLSPGK
chain 2: QVQLVESGGGLVQAGGSLTLSCAAPGRTFGTDVVGWFRQAPGKEREFVASISRSGDGIYYDDSVKGRFTISRNNAWNTVNLQMNSLKVEDTAVYYCAAGDGWSTYDYWGQGTQVTVSSGGGGSGGGGSGGGGSEVQLVESGGGLVQTGGSLRLSCAASGGTFSRDAMAWFRQVPGKEREFVALISWSGATTNYADSVKGRFAISRDNGKNTVYLQMNRLKPADTAIYYCAADRRPMGSRSYFEPTEYDDWGQGTQVTVSSGGGGSGGGGSGGGGSQVQLVESGGGLVQPGGSLRLSCATSGFTFRNNFMSWVRQAPGKGLEWVSTISYGGESTTYAESVKGRFTISRDNAKNTLYLQMNNLKPEDTAVYYCAKATSYDSIRSGSRGQGTQVTVSSDKTHTCPPCPAPEAAGGPSVFLFPPKPKDTLMISRTPEVTCVVVDVSHEDPEVKFNWYVDGVEVHNAKTKPREEQYNSTYRVVSVLTVLHQDWLNGKEYKCKVSNKALGAPIEKTISKAKGQPREPQVYTLPPSRDELTKNQVSLTCLVKGFYPSDIAVEWESNGQPENNYKTTPPVLDSDGSFFLYSRLTVDKSRWQQGNVFSCSVMHEALHNHYTQKSLSLSPGK
B4: in experiment [1], the “EC50 (nM) pSTAT5, NK, human PBMCs” value was 0.0752 nM; the “EC50 (nM) pSTAT5, Treg, human PBMCs” value came to 0.735 nM; the “Fold Max signal (% pSTAT5+) Treg/NK” value came out at 6 fold; the “Max signal (% pSTAT5+), NK” value is 11.4 % pSTAT5+. In addition, the “Max signal (% pSTAT5+), Treg” value in experiment [1] amounted to 66.7 % pSTAT5+.
